Assay results published in publication PMC6625726, “A polymorphic helix of a Salmonella needle protein relays signals defining distinct steps in type III secretion” (PLoS Biology, 2019).

B1: PrgI, wild type, in S. Typhimurium (natural protein)
chain: MATPWSGYLDDVSAKFDTGVDNLQTQVTEALDKLAAKPSDPALLAAYQSKLSEYNLYRNAQSNTVKVFKDIDAAIIQNFR
notes: needle filament protein PrgI of the SPI-1 T3SS, 80 amino acids; assembled in vivo into the needle filament of the injectisome; also called WT PrgI; needle filament; source: S. Typhimurium ΔprgI ΔprgJ, from the low-copy plasmid pWSK29 (with prgJ); or chromosomal in wild-type and ΔsipD strains
B2: PrgI^S49A, recombinant (natural protein, Salmonella enterica serovar Typhimurium, UniProt P41784 1-80, looked up)
chain: MATPWSGYLDDVSAKFDTGVDNLQTQVTEALDKLAAKPSDPALLAAYQAKLSEYNLYRNAQSNTVKVFKDIDAAIIQNFR
notes: needle filament protein PrgI of the SPI-1 T3SS, 80 amino acids; not shown: His6, N-terminal, cleaved
B3: PrgI^V67A, recombinant (natural protein, Salmonella enterica serovar Typhimurium, UniProt P41784 1-80, looked up)
chain: MATPWSGYLDDVSAKFDTGVDNLQTQVTEALDKLAAKPSDPALLAAYQSKLSEYNLYRNAQSNTVKAFKDIDAAIIQNFR
notes: as for B2
B4: PrgI, wild type, recombinant (natural protein)
chain: MATPWSGYLDDVSAKFDTGVDNLQTQVTEALDKLAAKPSDPALLAAYQSKLSEYNLYRNAQSNTVKVFKDIDAAIIQNFR
notes: needle filament protein PrgI of the SPI-1 T3SS, 80 amino acids; pET15b, thrombin-cleavable tag; polymerised in vitro into filaments; also called PrgI^WT; WT PrgI; not shown: His6, N-terminal, cleaved
B5: PrgI^L9A, recombinant (natural protein, Salmonella enterica serovar Typhimurium, UniProt P41784 1-80, looked up)
chain: MATPWSGYADDVSAKFDTGVDNLQTQVTEALDKLAAKPSDPALLAAYQSKLSEYNLYRNAQSNTVKVFKDIDAAIIQNFR
notes: as for B2
B6: PrgI^F16A, recombinant (natural protein, Salmonella enterica serovar Typhimurium, UniProt P41784 1-80, looked up)
chain: MATPWSGYLDDVSAKADTGVDNLQTQVTEALDKLAAKPSDPALLAAYQSKLSEYNLYRNAQSNTVKVFKDIDAAIIQNFR
notes: as for B2
B7: PrgI^L31A, recombinant (natural protein, Salmonella enterica serovar Typhimurium, UniProt P41784 1-80, looked up)
chain: MATPWSGYLDDVSAKFDTGVDNLQTQVTEAADKLAAKPSDPALLAAYQSKLSEYNLYRNAQSNTVKVFKDIDAAIIQNFR
notes: as for B2
B8: PrgI^T3A, recombinant (natural protein, Salmonella enterica serovar Typhimurium, UniProt P41784 1-80, looked up)
chain: MAAPWSGYLDDVSAKFDTGVDNLQTQVTEALDKLAAKPSDPALLAAYQSKLSEYNLYRNAQSNTVKVFKDIDAAIIQNFR
notes: as for B2
B9: PrgI^K66E, recombinant (natural protein, Salmonella enterica serovar Typhimurium, UniProt P41784 1-80, looked up)
chain: MATPWSGYLDDVSAKFDTGVDNLQTQVTEALDKLAAKPSDPALLAAYQSKLSEYNLYRNAQSNTVEVFKDIDAAIIQNFR
notes: as for B2
B10: PrgI^D70K, recombinant (natural protein, Salmonella enterica serovar Typhimurium, UniProt P41784 1-80, looked up)
chain: MATPWSGYLDDVSAKFDTGVDNLQTQVTEALDKLAAKPSDPALLAAYQSKLSEYNLYRNAQSNTVKVFKKIDAAIIQNFR
notes: as for B2
B11: PrgI^L56A, recombinant (natural protein, Salmonella enterica serovar Typhimurium, UniProt P41784 1-80, looked up)
chain: MATPWSGYLDDVSAKFDTGVDNLQTQVTEALDKLAAKPSDPALLAAYQSKLSEYNAYRNAQSNTVKVFKDIDAAIIQNFR
notes: as for B2
B12: PrgI^Q77R, recombinant (natural protein, Salmonella enterica serovar Typhimurium, UniProt P41784 1-80, looked up)
chain: MATPWSGYLDDVSAKFDTGVDNLQTQVTEALDKLAAKPSDPALLAAYQSKLSEYNLYRNAQSNTVKVFKDIDAAIIRNFR
notes: needle filament protein PrgI of the SPI-1 T3SS, 80 amino acids; used for solid-state NMR; not shown: His6, N-terminal, cleaved
B13: PrgI^V20A, recombinant (natural protein, Salmonella enterica serovar Typhimurium, UniProt P41784 1-80, looked up)
chain: MATPWSGYLDDVSAKFDTGADNLQTQVTEALDKLAAKPSDPALLAAYQSKLSEYNLYRNAQSNTVKVFKDIDAAIIQNFR
notes: as for B12
B14: PrgI^R58A, recombinant (natural protein, Salmonella enterica serovar Typhimurium, UniProt P41784 1-80, looked up)
chain: MATPWSGYLDDVSAKFDTGVDNLQTQVTEALDKLAAKPSDPALLAAYQSKLSEYNLYANAQSNTVKVFKDIDAAIIQNFR
notes: as for B12

Target: the molecule itself
Experiment: cryo-EM structure; needle filaments boxed out from fully assembled needle complexes isolated by affinity chromatography (in vivo assembled, attached to the base); helical reconstruction
B1: binds.

Target: the molecule itself
Experiment: cryo-EM structure; filaments polymerized in vitro from purified protein, sonicated; helical reconstruction
B2: binds.
B3: binds.

Target: the molecule itself
Experiment: in vitro polymerization seen by negative-stain electron microscopy; His-tag cleaved with thrombin; concentrated to approximately 1 mg/ml in 20 mM MES, pH 5.5, overnight at room temperature; 2% phosphotungstic acid stain
B4: binds.
B5: binds.
B6: binds.
B7: binds.
B8: binds.
B9: binds.
B10: binds.
B11: binds.

Target: the molecule itself
Experiment: solid-state NMR of filaments; magic-angle spinning, 800 MHz, 11 kHz, approximately 278 K; 13C-detected 1D and 2D spectra of needle filaments
B12: binds.
B13: binds.
B14: binds.
